# Results from article PMC8186250.
# B1: 2xFR (dsDNA)
# DNA 1: ATTAGGATAGCCTATGCTACCCAGATATAGATTAGGATAGCATATGCTACCCAGATATAGAGAGCGTCACCTAAGCC
# DNA 2: GGCTTAGGTGACGCTCTATATCTGGGTAGCATATGCTATCCTAATCTATATCTGGGTAGCATAGGCTATCCTAAT
# Target: EBNA1 DBD WT (Epstein-Barr virus (B95-8), UniProt P03211 459-607)
# Assay: SDS-EMSA
# EBNA1 DBD WT, sequence (P03211 459-607): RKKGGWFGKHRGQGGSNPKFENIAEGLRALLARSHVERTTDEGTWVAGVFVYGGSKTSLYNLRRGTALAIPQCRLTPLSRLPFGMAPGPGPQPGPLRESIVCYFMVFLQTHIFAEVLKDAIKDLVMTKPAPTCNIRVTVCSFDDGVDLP
binder,measurement,value
B1,binding result,binds
